Measurements reported in US20230365956A1.

Tests used:
[1] = target: SARS-CoV-2 RBD, wild type (Sino Biological) (SARS-CoV-2) (UniProt P0DTC2); assay: BLI, affinity format: binder on AHC sensor, RBD in solution
[2] = target: SARS-CoV-2 RBD, wild type (Sino Biological) (SARS-CoV-2) (UniProt P0DTC2); assay: BLI, affinity format: response at highest analyte concentration
[3] = target: SARS-CoV-2 RBD, wild type (Sino Biological) (SARS-CoV-2) (UniProt P0DTC2); assay: BLI, avidity format: biotinylated RBD on SA sensor, binder in solution
[4] = target: SARS-CoV-2 RBD, wild type (Sino Biological) (SARS-CoV-2) (UniProt P0DTC2); assay: BLI, avidity format: response at highest analyte concentration

## Cilgavimab (antibody)
[1]
  Kd: 3.98 nM
  koff: 0.00172 s⁻¹
  kon: 434000 M⁻¹ s⁻¹
[2]
  Response: 0.397 nm shift
[3]
  Kd: 0.21 nM
  koff: 6.53e-05 s⁻¹
  kon: 312000 M⁻¹ s⁻¹
[4]
  Response: 0.64 nm shift
